Results: US20060121462A1, “Receptor and screening methods” (priority 2003, published 2006)

Tests used:
[1] = target: T1, C3aR (Homo sapiens, UniProt Q16581); test: Degranulation of C3aR-transfected RBL cells; type: cell-based; settings: RBL cells transfected with C3aR; data not shown
T1 construct: expressed in transfected cells
T1 sequence (Q16581 1-482): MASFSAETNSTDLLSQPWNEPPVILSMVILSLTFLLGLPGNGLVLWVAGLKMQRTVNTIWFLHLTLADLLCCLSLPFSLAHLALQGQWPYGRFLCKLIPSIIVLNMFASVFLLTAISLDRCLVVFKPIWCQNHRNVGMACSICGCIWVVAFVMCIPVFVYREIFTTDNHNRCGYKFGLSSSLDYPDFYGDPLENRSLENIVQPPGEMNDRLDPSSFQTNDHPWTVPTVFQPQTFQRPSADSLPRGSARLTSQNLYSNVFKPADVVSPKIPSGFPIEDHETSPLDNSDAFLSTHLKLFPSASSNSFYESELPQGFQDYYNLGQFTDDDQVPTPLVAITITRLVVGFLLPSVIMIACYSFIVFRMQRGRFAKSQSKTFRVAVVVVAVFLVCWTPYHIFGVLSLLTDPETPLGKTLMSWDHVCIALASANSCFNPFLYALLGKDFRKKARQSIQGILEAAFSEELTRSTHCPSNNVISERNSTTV
Method: Cellular activation was measured as the release of -hexosaminidase from intracellular granules (20). In the enhancement of degranulation assay, cells were treated with 1 μg/ml IgE^DNP (21) overnight, then with chemoattractants or peptides for 10 min prior to stimulation with 100 ng/ml DNP-HSA (Sigma) for 15 minutes. EC50 and standard error values were obtained by iterative curve fitting using GraphPad Prism 2.0.

[2] = target: T2, C5L2 (Homo sapiens, UniProt Q9P296); test: Competition binding with 125I-C5a, C5L2-transfected RBL cells
T2 construct: expressed in transfected cells
Method: (§1) FIG. 1 illustrates C3a des-Arg^77 and C4a des-Arg^77 bind to RBL cells expressing C5L2. RBL cells transfected with C5L2 were incubated with the stated concentrations of complement fragments for 10 min prior to the addition of 50 pM ^125I-C3a (A) or 50 pM ^125I-C5a (B). Results are the means of n (n shown in Table 1) separate experiments performed in duplicate±S.E.;
(§2) C5L2, C3aR and CD88-transfected RBL cells were produced as described (17). G16 was cloned from human monocytes mRNA and authenticated by sequencing. Human G16 and either C5L2 or CD88 were ligated into the bicistronic expression vector pIRES (Qiagen). Stable transfection of RBL-2H3 cells with pIRES constructs was achieved by electroporation (18). Cells underwent three rounds of fluorescence-activated cell sorting using anti-CD88 antibody (clone S5/1; Serotec) or anti-hemagglutinin peptide antibody (Roćhe Molecular Biochemicals, clone 12CA5), selecting the top 5% of receptor-positive cells in each round.
(§3) Competition binding assays were performed using 50 pM ^125I-C5a or ^125I-C3a (NEN) on adherent C5aR-transfected or C5L2-transfected RBL cells in 96-well microtiter plates (55 000/well) at 4° C. as described previously (22). Competition curves were generated by pre-incubating adherent cells with increasing concentrations of unlabelled complement fragments. […]

[3] = target: T2, C5L2; test: Competition binding with 125I-C3a, C5L2-transfected RBL cells; settings: FIG. 1A
Method: as §1, §2, §3

[4] = target: T3, CD88 (Homo sapiens, UniProt P21730); test: Degranulation of CD88-transfected RBL cells; type: cell-based; settings: RBL cells transfected with CD88; data not shown
T3 construct: expressed in transfected cells
T3 sequence (P21730 1-350): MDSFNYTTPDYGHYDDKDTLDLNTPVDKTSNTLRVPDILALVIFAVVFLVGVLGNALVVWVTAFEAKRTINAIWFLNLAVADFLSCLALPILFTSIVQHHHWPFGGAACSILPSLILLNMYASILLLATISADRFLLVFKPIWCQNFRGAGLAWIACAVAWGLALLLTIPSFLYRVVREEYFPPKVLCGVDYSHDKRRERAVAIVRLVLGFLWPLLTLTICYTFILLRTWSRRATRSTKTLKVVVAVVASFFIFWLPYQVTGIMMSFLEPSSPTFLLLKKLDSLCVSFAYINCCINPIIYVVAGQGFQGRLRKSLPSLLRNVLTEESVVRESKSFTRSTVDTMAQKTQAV

[5] = target: T1, C3aR; test: Radiolabelled ligand competition receptor binding, C3aR-transfected RBL cells; settings: C3aR expressed in RBL cells; competition binding
Source text: as §2
(§4) Competition binding assays were performed using 50 pM ^125I-C5a or ^125I-C3a (NEN) on adherent C5aR-transfected or C5L2-transfected RBL cells in 96-well microtiter plates (55 000/well) at 4° C. as described previously (22). Competition curves were generated by pre-incubating adherent cells with increasing concentrations of unlabelled complement fragments. The IC50, standard error values and linear regression analyses were obtained by using GraphPad Prism 2.0.

[6] = target: T3, CD88; test: Radiolabelled ligand competition receptor binding, CD88-transfected RBL cells
Source text: as §2, §4

[7] = target: T4, C5L2+Gα16 (Homo sapiens, UniProt Q9P296); type: cell-based; settings: C5L2+Gα16 cells after 10 ng/ml PT, FIG. 4D
T4 construct: inferred from the sorting antibody; expressed in transfected cells

[8] = target: T2, C5L2; test: Degranulation (β-hexosaminidase) and enhancement of IgE-receptor-mediated degranulation, C5L2-transfected RBL cells; type: cell-based; settings: enhancement of IgE-mediated degranulation, FIG. 3A

T2 sequence (Q9P296 whole entry): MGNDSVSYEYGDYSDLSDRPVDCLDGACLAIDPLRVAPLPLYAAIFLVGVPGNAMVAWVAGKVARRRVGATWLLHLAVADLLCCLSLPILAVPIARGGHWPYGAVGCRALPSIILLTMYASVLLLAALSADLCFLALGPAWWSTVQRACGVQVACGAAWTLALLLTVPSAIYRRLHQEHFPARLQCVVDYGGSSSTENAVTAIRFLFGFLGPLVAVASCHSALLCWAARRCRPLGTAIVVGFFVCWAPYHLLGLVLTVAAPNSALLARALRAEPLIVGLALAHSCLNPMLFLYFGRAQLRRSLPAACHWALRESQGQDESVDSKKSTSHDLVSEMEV
T4 sequence (Q9P296 whole entry): as above

B1: C4a des-Arg^77 (protein)
chain: NVNFQKAINEKLGQYASPTAKRCCQDGVTRLPMMRSCEQRAARVQQPDCREPFLSCCQFAESLRKKSRDKGQAGLQ
notes: desarginated metabolite of complement fragment C4a
- stimulation of degranulation [1]: neither C3a des-AXg^77 nor C4a des-Arg^77 can stimulate degranulation
- IC50 ([2]; C5L2 (^125I-C5a) expressed in RBL cells, 50 pM radioligand): 17 µM
- competition with ^125I-C5a binding to C5L2 ([2]; FIG. 1B): cannot compete effectively
- competition with ^125I-C3a for C5L2 binding [3]: can compete strongly
- stimulation of degranulation [4]: neither C3a des-AXg^77 nor C4a des-Arg^77 can stimulate degranulation
- IC50 [5]: 10 µM
- competition with ^125I-C5a binding to CD88 [6]: cannot compete effectively

B2: C4a: complement fragment of C4 (protein)
chain: NVNFQKAINEKLGQYASPTAKRCCQDGVTRLPMMRSCEQRAARVQQPDCREPFLSCCQFAESLRKKSRDKGQAGLQR
- enhancement of degranulation response to IgE receptor cross-linking [7]: inactive

B3: C5a des-Arg^74 (protein)
chain: TLQKKIEEIAAKYKHSVVKKCCYDGACVNNDETCEQRAARISLGPRCIKAFTECCVVASQLRANISHKDMQLG
modifications: left off: small tags and cut ends
notes: desarginated metabolite of complement fragment C5a
- agonist character [8]: only a partial agonist
